Data reported in patent publication US20220127354A1 (Amgen, published 2022).

Key:
Assay in all cases: flow cytometry, transfected 293T cells
[1] = target: T1, muCDH19(44-139)::huCDH19(142-249)::muCDH19(248-770) with Flag tag (construct D, Hu EC2) (human/mouse chimera)
T1 construct: leader left out; the entry starts at residue 44; also called C137913
T1 chain: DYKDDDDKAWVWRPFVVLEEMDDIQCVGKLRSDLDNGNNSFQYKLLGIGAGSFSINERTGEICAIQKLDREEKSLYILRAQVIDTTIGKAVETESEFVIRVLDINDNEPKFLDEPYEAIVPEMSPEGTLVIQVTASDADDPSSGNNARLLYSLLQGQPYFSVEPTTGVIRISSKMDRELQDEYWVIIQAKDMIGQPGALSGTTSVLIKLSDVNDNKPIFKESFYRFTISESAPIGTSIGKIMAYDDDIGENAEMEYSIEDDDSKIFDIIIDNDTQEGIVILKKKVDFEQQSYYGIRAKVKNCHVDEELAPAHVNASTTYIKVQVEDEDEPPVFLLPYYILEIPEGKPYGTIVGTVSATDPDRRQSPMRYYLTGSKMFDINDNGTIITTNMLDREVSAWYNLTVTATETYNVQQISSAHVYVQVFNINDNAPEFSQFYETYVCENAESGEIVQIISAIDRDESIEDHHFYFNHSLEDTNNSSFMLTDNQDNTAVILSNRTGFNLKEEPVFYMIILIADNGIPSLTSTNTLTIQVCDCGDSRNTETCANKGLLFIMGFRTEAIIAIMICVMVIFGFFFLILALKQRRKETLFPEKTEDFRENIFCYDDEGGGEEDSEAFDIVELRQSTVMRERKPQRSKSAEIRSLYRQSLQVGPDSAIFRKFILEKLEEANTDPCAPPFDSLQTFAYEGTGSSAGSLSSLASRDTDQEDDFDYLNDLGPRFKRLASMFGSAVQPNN
From the text: (§1) The experiment included assaying the anti-CDH19 antibodies against mouse Cadherin19 to determine suitability for binning on these human/mouse chimeras.

[2] = target: T2, muCDH19(44-461)::huCDH19(464-772) with Flag tag (construct H, Hu EC5) (human/mouse chimera)
T2 construct: leader left out; the entry starts at residue 44; also called C137915
T2 chain: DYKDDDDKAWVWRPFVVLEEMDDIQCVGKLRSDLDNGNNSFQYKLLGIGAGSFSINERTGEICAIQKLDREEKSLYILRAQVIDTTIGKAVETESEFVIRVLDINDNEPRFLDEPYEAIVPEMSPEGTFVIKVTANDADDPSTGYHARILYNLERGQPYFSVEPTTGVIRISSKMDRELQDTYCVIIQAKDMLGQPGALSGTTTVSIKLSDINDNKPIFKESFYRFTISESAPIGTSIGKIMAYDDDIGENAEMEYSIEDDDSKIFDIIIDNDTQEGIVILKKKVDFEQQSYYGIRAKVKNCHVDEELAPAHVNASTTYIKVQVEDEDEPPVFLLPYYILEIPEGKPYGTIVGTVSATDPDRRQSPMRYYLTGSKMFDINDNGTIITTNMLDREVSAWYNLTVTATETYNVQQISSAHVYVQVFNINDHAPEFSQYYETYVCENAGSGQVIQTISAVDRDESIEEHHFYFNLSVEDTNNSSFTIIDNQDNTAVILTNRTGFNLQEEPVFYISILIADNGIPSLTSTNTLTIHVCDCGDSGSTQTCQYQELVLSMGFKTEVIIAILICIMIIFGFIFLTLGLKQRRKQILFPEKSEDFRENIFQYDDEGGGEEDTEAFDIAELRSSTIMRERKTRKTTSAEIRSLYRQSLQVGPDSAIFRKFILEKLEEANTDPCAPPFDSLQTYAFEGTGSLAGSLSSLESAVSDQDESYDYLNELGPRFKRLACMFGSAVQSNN
From the text: as §1

[3] = target: T3, muCDH19(44-362)::huCDH19(365-772) with Flag tag (construct G, Hu EC4-5) (human/mouse chimera)
T3 construct: leader left out; the entry starts at residue 44; also called C137917
T3 chain: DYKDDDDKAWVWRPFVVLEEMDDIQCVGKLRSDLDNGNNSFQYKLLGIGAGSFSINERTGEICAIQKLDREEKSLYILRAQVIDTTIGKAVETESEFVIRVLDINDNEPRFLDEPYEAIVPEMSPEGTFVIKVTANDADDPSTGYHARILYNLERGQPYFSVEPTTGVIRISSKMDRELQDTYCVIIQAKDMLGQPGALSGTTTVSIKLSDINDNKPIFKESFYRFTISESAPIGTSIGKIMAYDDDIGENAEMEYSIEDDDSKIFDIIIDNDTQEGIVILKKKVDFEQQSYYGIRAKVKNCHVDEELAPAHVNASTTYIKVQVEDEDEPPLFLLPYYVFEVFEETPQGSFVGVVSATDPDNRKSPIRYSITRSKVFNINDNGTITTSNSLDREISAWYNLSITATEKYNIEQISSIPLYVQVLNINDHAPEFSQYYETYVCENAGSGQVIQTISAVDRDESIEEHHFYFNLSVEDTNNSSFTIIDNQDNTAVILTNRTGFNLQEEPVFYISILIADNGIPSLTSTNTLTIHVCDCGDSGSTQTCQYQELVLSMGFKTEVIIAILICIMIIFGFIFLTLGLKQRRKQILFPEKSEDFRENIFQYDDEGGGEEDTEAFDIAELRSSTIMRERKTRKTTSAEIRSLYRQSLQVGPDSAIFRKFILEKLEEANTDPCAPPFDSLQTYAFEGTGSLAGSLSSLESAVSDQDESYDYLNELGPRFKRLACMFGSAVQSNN
From the text: as §1

Measured: binding result

B1: anti-CDH19 antibody 2G6 (Ab ID 13588) (antibody, human IgG1, lambda, V domains shown)
VH: QVQLVESGGGVVQPGRSLRLSCAASGFTFSSYGMHWVRQAPGKGLEWVAFIWYDGSNKYYADSVKDRFTISRDNSKNTLYLQMKSLRAEDTAVYYCARRAGIIGTIGYYYGMDVWGQGTTVTVSS
VL: SYELTQPPSVSVSPGQTASITCSGDRLGEKYTCWYQQRPGQSPLLVIYQDTKRPSGIPERFSGSNSGNTATLTISGTQAMDEADYYCQAWDSSTVVFGGGTKLTVLG
notes: Bin 4
binds: all assays above
